Reference: article PMC7341897 (Nature cell biology, 2019)

B1: hSgo1^1-112 labeled with CF555 (domain or fragment, human, UniProt Q5FBB7 1-112, looked up)
chain: MAKERCLKKSFQDSLEDIKKRMKEKRNKNLAEIGKRRSFIAAPCQIITNTSTLLKNYQDNNKMLVLALENEKSKVKEAQDIILQLRKECYYLTCQLYALKGKLTSQQTVEPA
modifications: CF-555 label (Mix-n-Stain CF-555 labeling kit)

Experiments:
Survivin = Survivin (UniProt O15392); assay: fluorescent peptide partitioning into ISB coacervates; details: reference: unmodified H3 peptide; sites T3
[1] = biological target: INCENP^1-58-Survivin-Borealin (ISB) complex, wild type (UniProt Q9NQS7 1-58; O15392 1-142; Q53HL2 1-280); assay: partitioning of a fluorescent client into preformed coacervates
[2] = biological target: ISB complex lacking amino acids 139-160 of Borealin (UniProt Q9NQS7 1-58; O15392 1-142; Q53HL2 1-280, Δ139-160); assay: as above

| Molecule | binding against the reference (Survivin) | binding result [1] | binding result [2] |
| --- | --- | --- | --- |
| histone H3 (synthetic N-terminal peptide) (from UniProt P68431) H3pT3 peptide | stronger | – | – |
| B1 | – | binds | binds |
